In US20240109962A1 (SPARX BIOSCIENCE, published 2024):
Where two headings read alike, the source gives them in different places.

Columns and labels:
[1] = molecular target: LILRB2 antigen of the ELISA of Table 5 (format not specified) (UniProt Q8N423 22-460, limits assumed); assay: ELISA, antibody titration
[2] = molecular target: T1, human LILRB1 expressed on 293T cells (human, UniProt Q8NHL6 24-650); assay: cell ELISA on fixed 293T transfectants, antibody 2 µg/ml, OD490
T1 construct: whole, on cells
Method: (§1) The cells were then immobilized with glutaraldehyde in the presence of 5% defatted milk at room temperature for 2 hours. An anti-LILRB2 antibody (2 μg/ml) was added to each well and incubated at room temperature for 2 hours. An HRP-labelled goat anti-mouse secondary antibody was then added into each well and incubated at room temperature for one hour. An HRP substrate, o-phenylenediamine dihydrochloride (OPD) was then added to each well. The plate was incubated at room temperature for 15 min to allow color development and OD₄₉₀ values were determined.

[3] = molecular target: T2, human LILRB3 expressed on 293T cells (human, UniProt O75022 24-631); assay: as above
T2 construct: whole, on cells
Method: as §1

[4] = molecular target: T3, His-tagged human LILRB2 polypeptide (human, UniProt Q8N423 22-460); assay: SPR, antibody on CM5 chip, His-LILRB2 analyte, 1:1 model
T3 construct: SPR analyte; also called His-tagged human LILBR2 polypeptide; not shown: His tag
Method: Surface plasmon resonance (SPR) was used to examine binding activities of exemplary anti-LILBR2 antibodies disclosed herein. Briefly, the anti-LILBR2 antibody was diluted in a coating buffer to a concentration of 30 μg/ml, loaded onto CM5 chips at 10 μl/min to allow coating of the antibody on the surface of the CM5 chip. […] Binding affinity was measured based on the 1:1 binding model.

[5] = molecular target: T4, human LILRB2 expressed on cells (293T-LILRB2, CHO-K1-LILRB2) (human, UniProt Q8N423 22-597); assay: flow cytometry on 293T-LILRB2 cells, serial dilution, APC anti-human IgG; fit table under the graph
T4 construct: whole, on cells; the cell line is named under assay; also called HEK293T-LILRB2
Description: (§2) The cells were washed and then subject to flow cytometry to measure levels of fluorescent signals.

[6] = molecular target: T4, human LILRB2 expressed on cells …; assay: as above; remark: listed apart in the source
Description: as §2

[7] = molecular target: T4, human LILRB2 expressed on cells …; assay: flow cytometry, blockade of His-tagged HLA-G tetramer binding to 293T-LILRB2 cells; fit table under the graph
Method: (§3) Serial diluted humanized LILRB2 antibodies were then added to the mixture and incubated at room temperature for another 45 minutes. The binding of HLA-G/LILRB2 was detected afterwards using a secondary PE-labeled anti-His tag antibody via flow cytometry.

[8] = molecular target: T4, human LILRB2 expressed on cells …; assay: as above; remark: listed apart in the source
Method: as §3

[9] = molecular target: T4, human LILRB2 expressed on cells …; assay: flow cytometry, blockade of His-tagged HLA-A2 tetramer binding to 293T-LILRB2 cells
[10] = molecular target: T4, human LILRB2 expressed on cells …; assay: flow cytometry, blockade of His-tagged HLA-G tetramer binding to 293T-LILRB2 cells; fit table under the graph; remark: listed apart in the source
Method: as §3

[11] = molecular target: T4, human LILRB2 expressed on cells …; assay: flow cytometry, blockade of His-tagged HLA-A2 tetramer binding to 293T-LILRB2 cells; fit table under the graph
[12] = molecular target: T4, human LILRB2 expressed on cells …; assay: flow cytometry on 293T-LILRB2 cells, serial dilution, APC anti-human IgG; fit table under the graph; remark: listed apart in the source
Description: as §2

[13] = molecular target: T4, human LILRB2 expressed on cells …; assay: as above; remark: listed apart in the source
Description: as §2

[14] = molecular target: T4, human LILRB2 expressed on cells …; assay: flow cytometry, blockade of His-tagged HLA-G tetramer binding to 293T-LILRB2 cells; fit table under the graph, row headed EC50
Method: as §3

T3 sequence (Q8N423 22-460 limits assumed): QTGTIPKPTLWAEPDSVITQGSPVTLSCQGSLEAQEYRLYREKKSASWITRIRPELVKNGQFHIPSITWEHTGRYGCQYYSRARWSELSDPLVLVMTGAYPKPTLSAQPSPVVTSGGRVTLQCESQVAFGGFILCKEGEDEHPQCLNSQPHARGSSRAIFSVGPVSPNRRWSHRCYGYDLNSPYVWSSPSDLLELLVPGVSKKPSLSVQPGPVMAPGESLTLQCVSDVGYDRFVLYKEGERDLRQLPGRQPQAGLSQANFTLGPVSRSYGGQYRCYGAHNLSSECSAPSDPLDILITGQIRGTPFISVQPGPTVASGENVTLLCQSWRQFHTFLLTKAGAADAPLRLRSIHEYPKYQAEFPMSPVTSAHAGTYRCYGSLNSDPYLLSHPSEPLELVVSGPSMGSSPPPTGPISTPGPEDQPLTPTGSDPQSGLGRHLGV
T4 sequence (Q8N423 22-597): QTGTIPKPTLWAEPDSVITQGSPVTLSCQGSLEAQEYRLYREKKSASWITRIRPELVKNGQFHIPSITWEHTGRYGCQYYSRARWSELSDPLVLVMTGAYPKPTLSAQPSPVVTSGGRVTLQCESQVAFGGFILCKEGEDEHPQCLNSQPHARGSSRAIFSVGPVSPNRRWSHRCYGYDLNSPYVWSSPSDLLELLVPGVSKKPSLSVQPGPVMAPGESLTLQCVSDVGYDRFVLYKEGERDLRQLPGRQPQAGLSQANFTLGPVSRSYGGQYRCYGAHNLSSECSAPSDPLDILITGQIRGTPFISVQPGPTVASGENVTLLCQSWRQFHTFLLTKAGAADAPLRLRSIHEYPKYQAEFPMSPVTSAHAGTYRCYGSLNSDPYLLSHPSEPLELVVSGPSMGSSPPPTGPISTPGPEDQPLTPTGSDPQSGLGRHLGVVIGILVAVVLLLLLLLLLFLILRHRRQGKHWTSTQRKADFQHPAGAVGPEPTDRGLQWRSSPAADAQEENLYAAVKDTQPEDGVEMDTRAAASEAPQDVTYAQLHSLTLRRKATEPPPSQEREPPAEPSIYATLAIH
Chain of LILRB2 antigen of the ELISA of Table 5 (format not specified) (Q8N423 22-460 limits assumed): as the sequence (Q8N423 22-460 limits assumed) above
T1 sequence (Q8NHL6 24-650): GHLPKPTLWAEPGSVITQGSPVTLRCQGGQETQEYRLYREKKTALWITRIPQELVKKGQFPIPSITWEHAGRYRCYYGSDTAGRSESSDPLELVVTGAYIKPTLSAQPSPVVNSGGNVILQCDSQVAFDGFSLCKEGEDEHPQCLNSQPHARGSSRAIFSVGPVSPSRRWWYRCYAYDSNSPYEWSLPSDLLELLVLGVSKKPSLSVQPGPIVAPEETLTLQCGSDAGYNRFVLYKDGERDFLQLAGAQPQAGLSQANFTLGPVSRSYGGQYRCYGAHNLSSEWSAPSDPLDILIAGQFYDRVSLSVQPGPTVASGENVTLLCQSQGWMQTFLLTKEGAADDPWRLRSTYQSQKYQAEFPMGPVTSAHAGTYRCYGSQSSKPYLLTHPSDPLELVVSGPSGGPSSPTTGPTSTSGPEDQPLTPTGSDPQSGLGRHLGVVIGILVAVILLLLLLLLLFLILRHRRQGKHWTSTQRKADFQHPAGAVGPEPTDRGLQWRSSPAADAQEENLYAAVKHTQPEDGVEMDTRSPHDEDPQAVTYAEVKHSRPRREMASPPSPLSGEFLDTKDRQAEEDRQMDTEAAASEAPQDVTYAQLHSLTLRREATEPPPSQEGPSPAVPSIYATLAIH

Kd [1] [nM]	binding result [2]	binding result [3]	Kd [4] [nM]	koff [4] [s⁻¹]	kon [4] [M⁻¹ s⁻¹]	Bmax [5] [RFU]	Kd [5] [nM]	Bmax [6] [RFU]	Kd [6] [nM]	Span [7] [RFU]	IC50 [8] [nM]	IC50 (read off the curve) [9] [nM]	IC50 [10] [nM]	Span [10] [RFU]	IC50 [11] [nM]	Kd [12] [nM]	Bmax [13] [RFU]	Kd [13] [nM]	EC50 [14] [nM]	Binder
0.705	binds	binds	0.317	0.000107	338000	–	–	–	–	–	–	–	–	–	–	–	–	–	–	Antibody 10D7 (antibody, V domains shown, Mouse hybridoma mAb purified from ascites) VH: EVKLVESGGGLVKPGGSLKLSCAASGFTFSSYGMSWVRQTPEKRLEWVATISGAFSYTYYPDSVKGRFTISRDNAKNNLYLQMSSLRSEDTAFYYCARHDNSLYYAMDYWGQGTSVTVSS VL: NVQITQSPSYLAASPGETITINCRTSKSITKYLAWYQEQPGKTNKLLIYSGSTLQSGIPSRFSGSGSGTDFTLTISSLEPEDFAMYYCQQHNEYPWTFGGGTKLEIK
–	–	–	–	–	–	556000	0.162	647000	0.446	11900	0.813	~1	0.361	8000	0.787	0.364	618000	0.377	0.163	Antibody h#2E1 (antibody, V domains shown, Humanized variant of 11B12; detected with anti-human IgG) VH: EVQLVESGGGLVQPGGSLRLSCAVSGYSITSGYYWNWIRQAPGKGLEWVAYISYDGNNNYNPSLKNRFTISRDTSKNTFYLQMNSLRAEDTAVYYCAREESTMITTAWFAYWGQGTLVTVSS VL: DIQMTQSPSSLSASVGDRVTITCRASENIYSNLAWYQQKPGKAPKLLIYGATNLASGVPSRFSGSGSGTDYTLTISSLQPEDFATYYCQHFWDTPYTFGQGTKVEIK
